What was measured:
[1] = target: T1, mouse Nectin-4 (mouse, UniProt Q8R007 31-508); assay: flow cytometry, transfected 293T cells; + EC50 between 25 nM and 133 nM
T1 construct: Transiently expressed on 293T cells; also called murine Nectin-4
T1 sequence: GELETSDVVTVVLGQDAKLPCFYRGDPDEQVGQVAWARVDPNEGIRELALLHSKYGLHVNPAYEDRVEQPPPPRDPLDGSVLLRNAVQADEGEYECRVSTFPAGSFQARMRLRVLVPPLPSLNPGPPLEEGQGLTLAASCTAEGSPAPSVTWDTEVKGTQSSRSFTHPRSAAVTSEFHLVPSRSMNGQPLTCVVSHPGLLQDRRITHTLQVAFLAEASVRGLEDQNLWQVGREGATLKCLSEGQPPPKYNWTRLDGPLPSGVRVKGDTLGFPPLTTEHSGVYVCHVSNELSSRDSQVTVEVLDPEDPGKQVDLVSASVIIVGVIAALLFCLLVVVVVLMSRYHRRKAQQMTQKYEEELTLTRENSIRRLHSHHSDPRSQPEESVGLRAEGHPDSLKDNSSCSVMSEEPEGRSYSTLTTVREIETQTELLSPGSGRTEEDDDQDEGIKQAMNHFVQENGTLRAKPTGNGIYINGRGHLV
Method: (§1) CDNAs encoding Nectin-4 protein from cynomolgus monkey (SEQ ID NO: 62), rat (SEQ ID NO: 63), or mouse (SEQ ID NO: 64) were separately cloned into a pcDNA3.1-based mammalian expression plasmid. The respective plasmids were transfected to human 293T cells in a similar way described in Example 6. The binding EC50 of disclosed human Nectin-4 antibodies to species-specific Nectin-4 transiently expressed on 293T cell surface was measured by flow cytometry.

[2] = target: T2, rat Nectin-4 (rat, UniProt Q8R007 31-508 (mouse entry)); assay: flow cytometry, transfected 293T cells; +++ EC50 less than 5 nM
T2 construct: Transiently expressed on 293T cells
T2 chain: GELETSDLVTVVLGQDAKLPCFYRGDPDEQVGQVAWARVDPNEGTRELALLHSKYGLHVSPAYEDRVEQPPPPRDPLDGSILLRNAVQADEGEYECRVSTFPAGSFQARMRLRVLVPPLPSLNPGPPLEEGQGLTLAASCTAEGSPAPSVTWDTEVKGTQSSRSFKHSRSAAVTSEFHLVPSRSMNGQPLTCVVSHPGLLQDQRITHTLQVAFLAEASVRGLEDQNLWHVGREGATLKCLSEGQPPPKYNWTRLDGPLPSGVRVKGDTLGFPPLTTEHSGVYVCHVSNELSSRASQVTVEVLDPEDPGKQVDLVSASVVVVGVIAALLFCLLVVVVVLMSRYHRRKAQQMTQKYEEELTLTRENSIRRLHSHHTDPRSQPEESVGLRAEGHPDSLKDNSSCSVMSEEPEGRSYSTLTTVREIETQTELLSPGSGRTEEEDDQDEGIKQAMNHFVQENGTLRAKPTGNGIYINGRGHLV
Method: as §1

[3] = target: T2, rat Nectin-4; assay: flow cytometry, transfected 293T cells; + EC50 between 25 nM and 133 nM
Method: as §1

[4] = target: T3, full-length human Nectin-4 on cells (human, UniProt Q96NY8 32-510); assay: flow cytometry competition on CHO-Nectin-4 cells; competitor biotinylated human TIGIT; TIGIT as competitor
T3 construct: the cell is named under assay; also called CHO-Nectin-4 cells; Nectin-4-CHO
T3 sequence: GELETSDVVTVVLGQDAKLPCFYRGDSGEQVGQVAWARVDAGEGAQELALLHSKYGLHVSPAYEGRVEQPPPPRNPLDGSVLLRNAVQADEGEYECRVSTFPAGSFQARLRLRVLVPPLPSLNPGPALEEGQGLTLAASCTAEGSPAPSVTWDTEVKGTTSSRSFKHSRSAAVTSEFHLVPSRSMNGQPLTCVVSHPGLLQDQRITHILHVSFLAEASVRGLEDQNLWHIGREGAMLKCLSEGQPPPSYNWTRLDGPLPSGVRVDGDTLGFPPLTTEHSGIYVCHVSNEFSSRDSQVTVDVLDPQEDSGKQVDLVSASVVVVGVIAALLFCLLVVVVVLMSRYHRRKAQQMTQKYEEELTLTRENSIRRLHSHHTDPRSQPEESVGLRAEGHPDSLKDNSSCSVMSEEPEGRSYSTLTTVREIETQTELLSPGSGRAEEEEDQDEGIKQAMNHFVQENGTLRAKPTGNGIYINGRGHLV
Method: The ability of disclosed Nectin4-specific antibodies to block TIGIT binding to CHO-Nectin-4 cells was assessed by FACS. Briefly, CHO-Nectin-4 cells were incubated with dilutions of the disclosed purified recombinant antibodies. Then, biotinylated human TIGIT protein (SinoBiologic, catalog: 10917-H08H-B, lot: LC13AP0902) was added to the plate. After 30-minute incubation, cells were washed, followed by adding Streptavidin Alexa 647 (1:1000) to the samples. After a 30 minute incubation, the samples were analyzed on a flow cytometry instrument (Intellicyte, IQue plus, Sartorius) for TIGIT blocking activity. The positive control antibody used in this blocking assay is PC2, a Nectin-4 antibody with known blocking activity.

[5] = target: T3, full-length human Nectin-4 on cells; assay: flow cytometry competition on CHO-Nectin-4 cells; competitor biotinylated human Nectin-1-His; Nectin-1 as competitor
Method: The ability of disclosed Nectin4-specific antibodies to block Nectin-1 binding to Nectin-4 expressing cells (CHO cells transfected with human Nectin-4) was determined by FACS. Briefly, CHO-Nectin-4 cells were incubated with dilutions of the disclosed Nectin-4 purified recombinant antibodies. Then, biotinylated human Nectin-1 with His tag (ACROBiosystems, catalog number: PV1-H5223, lot: 733-38GS1-47, 0.75 ug/ml) was added to the plate. After 30-minute incubation, cells were washed, followed by adding Streptavidin Alexa 647 (1:1000) to the samples. After a 30 minute incubation, the samples were analyzed on a flow cytometry instrument (Intellicyte, IQue plus, Sartorius) for Nectin-1 blocking activity. The positive control antibody used in this blocking assay is a reference antibody (known to be a recombinant Nectin-4 specific antibody, made by Novarock Biotherapeutics, lot: 03042020KD).

[6] = target: T1, mouse Nectin-4; assay: flow cytometry, transfected 293T cells; ++ EC50 between 5 nM and 25 nM
Method: as §1

[7] = target: T2, rat Nectin-4; assay: as above
Method: as §1

B1: N4_mAb 5 (antibody, human IgG1, V domains shown)
VH: EVQLQQSGPDLVKPGASVKISCKASGYSFTGHYMHWVKQSHGKSLEWIGRVNPNNGGSSYNQKFKDKAILTVDKSSTTAYMELRSLTSEDSAVYYCARDPLGGSYGFAYWGQGTLVTVSA
VL: DIVLTQSPASLAVSLGQRATISCRASQSVTTSSYSYMHWYQQKPGQPPKLLIKYASNLESGVPARFSGSGSGTDFTLNIHPVEEEDTATYYCQHSWEIPYTFGGGTKLEMK
notes: Tested as chimera (human IgG1/kappa constants); not shown: human IgG1 constant region (Uniprot P01857); human Kappa light chain constant region (UniProt P01834)
EC50 [1]: 25 to 133 nM | EC50 [2]: < 5 nM

B2: N4_mAb 4 (antibody, human IgG1, V domains shown)
VH: DVQLQESGPDLVKPSQSLSLTCTVTGYSITSAYNWHWIRQFPGNKLEWMGYIHYSGRTNYNPSLKSRISITRDTSKNQFFLQLNSLTTEDTATYYCARWITTATGWYLDVWGAGTTVTVSS
VL: not shown
notes: as for B1
EC50 [3]: 25 to 133 nM | EC50 [4]: > 130 nM | EC50 [5]: > 130 nM

B3: N4_mAb 6 (antibody, human IgG1, V domains shown)
VH: QVQLQQSGPELVKPGASVRISCKASGYTFTTYYIHWVKQRPGQGLEWIGWIYPGNVNTKYTENFKDKATLTADKSSSTAYMQLSSLTSEDSAVYFCARGLYYFDFWGQGTTLTVSS
VL: SIVMTQTPKFLLVSAGDRVTITCKASQSVNNDVAWYQQKPGQSPKLLIYYASNRDTGVPDRFTGSGFGTDFTFTISSVQAEDLAVYFCQQDYSSPYTFGGGTKLEIK
notes: Tested as chimera (murine variable regions, human IgG1/kappa constants); not shown: human IgG1 constant region (Uniprot P01857); human Kappa light chain constant region (UniProt P01834)
EC50 [2]: < 5 nM | EC50 [6]: 5 to 25 nM

B4: N4_mAb 7 (antibody, human IgG1, V domains shown)
VH: QVQLQQSGPELVKPGASVKMSCKASGYTFTTYYIHWVKQRPGQGLEWIGWIYPGNAGIKSNEKFKGKTTLTADKSSSTAYMLLSSLTSEDSAIYFCARGVYFFDYWGQGTTLTVSS
VL: SIVMTQTPKFLLVSAGDRVTITCKASQSVNNDVSWFQQKPGQSPKLLIYYASNRYTGVPDRFSGSGYGTDFTFTITTVQAEDLAVYFCQQDYSSPYTFGGGTKLEIK
notes: as for B3
EC50 [2]: < 5 nM | EC50 [6]: 5 to 25 nM

B5: N4_mAb 8 (antibody, human IgG1, V domains shown)
VH: QVQLQQSGPVLVKPGASVRISCKASGYTFTSYYIHWVKQRPGQGLEWIGWIYPGNVNTKYNENFRDKATLTADKSSSTSYMQLSSLTSEDSAVYFCARGIYYFDYWGQGTTLTVSS
VL: IIVMTQTPKFLLVSAGDRVTITCKASQSVNNDVAWYQEKPGQSPKLLIYYASNRDTGVPDRFTGSGYGTDFTFTISTVQAEDLAVYFCHQDYSSPFTFGSGTKLEIK
notes: as for B3
EC50 [2]: < 5 nM | EC50 [6]: 5 to 25 nM

B6: N4_mAb 3 (antibody, human IgG1, V domains shown)
VH: EVQLQQSGAELVKPGASVKLSCTVSGFNIKDTYMHWVKQRPEQGLEWIGRIDPANGNTKYDPKFQGKATIIADKASNTAYLQLSSLTSEDAAVYYCAHYYGSSYFAMDCWGQGTSVTVSS
VL: DIVMTQSHKFMSTSVGDRVSITCKASQDVSTAVAWYQQKPGQSPKLLIYWASTRHTGVPDRFTGSGSGTDYTLTISSVQTEDLALYYCQQHYSTPLTFGAGTKLELK
notes: as for B1
EC50 [3]: 25 to 133 nM

B7: N4_mAb 2 (antibody, human IgG1, V domains shown)
VH: QVQLKQSGPNLVQPSQSLSITCTVSGFSLTTYGAHWVRQSPGKGLEWLGVIWRGGSTDYNAAFMSRLSITKDNSKSQVFFKMNSLQADDTAIYYCAKIGYDGYAMDNWGQGTSVTVSS
VL: DFQVTQSPASLSASVGETVTITCRTSENIHNYLAWYQQKQGKSPQLLVYNAKTLADGVPSRFSGSGSGTQYSLKINSLQPEDFGTYYCQHFWSSPWTFGGGTKLEIK
notes: as for B1
EC50 [6]: 5 to 25 nM | EC50 [7]: 5 to 25 nM
